For 48 molecules, Kd results are on record in publication PMC9352680, “A comprehensive thermodynamic model for RNA binding by the Saccharomyces cerevisiae Pumilio protein PUF4”.

By Kd is commonly meant the equilibrium constant for the complex coming apart. Read a low Kd as a tighter complex.

Residue numbers refer to the chain shown, from its start. Numbers in names are those of the source.

T1: PUF4 RNA-binding domain (Saccharomyces cerevisiae, UniProt P25339 537-888)
T1 sequence: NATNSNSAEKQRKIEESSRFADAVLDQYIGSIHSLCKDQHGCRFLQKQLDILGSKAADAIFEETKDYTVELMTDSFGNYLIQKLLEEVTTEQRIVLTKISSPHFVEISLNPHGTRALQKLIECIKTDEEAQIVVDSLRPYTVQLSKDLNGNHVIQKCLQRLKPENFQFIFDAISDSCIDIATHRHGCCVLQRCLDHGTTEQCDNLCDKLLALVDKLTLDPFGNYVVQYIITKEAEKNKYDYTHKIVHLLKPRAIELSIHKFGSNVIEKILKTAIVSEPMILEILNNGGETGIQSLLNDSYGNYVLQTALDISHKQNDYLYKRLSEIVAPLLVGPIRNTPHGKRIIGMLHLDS

B1: Ie_S2_P3E.2_K3.1_C3.2_[+-1CC]_H3.1_A3.1_F3.1_T3.2 (ssRNA)
RNA: UUUGAUUAAUAUGAUAUCGUUCUUUCUCUCCUGUAUAUAUAUUCUUUCUCGAUAUCAUAUUAAUCUUU
B2: Ie_S2_P3E.2_K3.1_C3.2_H3.1_[+2CC]_A3.1_F3.1_T3.2 (ssRNA)
RNA: B1 RNA with C30U, C31G, U32C, G33C
B3: Ie_S2_P3E.2_K3.1_C3.2_H3.1_[+1TC]_A3.1_F3.1_T3.2 (ssRNA)
RNA: B1 RNA with C30U, C31U, U32C
B4: Ie_S2_P3E.2_K3.1_C3.2_H3.1_[+3CT]_A3.1_F3.1_T3.2 (ssRNA)
RNA: B1 RNA with C30U, C31G, G33C
B5: Ie_S2_P3E.2_K3.1_C3.2_H3.1_[+2TT]_A3.1_F3.1_T3.2 (ssRNA)
RNA: B1 RNA with C30U, C31G, G33U
B6: Ie_S2_P3E.2_K3.1_C3.2_H3.1_[+2CT]_A3.1_F3.1_T3.2 (ssRNA)
RNA: B1 RNA with C30U, C31G, U32C, G33U
B7: Ie_S2_P3E.2_K3.1_C3.2_[+-2TCTCT]_H3.1_A3.1_F3.1_T3.2 (ssRNA)
RNA: UUUGAUUAAUAUGAUAUCGUUCUUUCUCUCUCUUUGUAUAUAUAUUCUUUCUCGAUAUCAUAUUAAUCUUU
B8: Ie_S2_P3E.2_K3.1_C3.2_[+-1CCCTT]_H3.1_A3.1_F3.1_T3.2 (ssRNA)
RNA: B7 RNA with U31C
B9: Ie_S2_P3E.2_K3.1_C3.2_[+-2CCCTT]_H3.1_A3.1_F3.1_T3.2 (ssRNA)
RNA: B7 RNA with U29C, U31C, C32U
B10: Ie_S2_P3E.2_K3.1_C3.2_H3.1_[+1CCCTT]_A3.1_F3.1_T3.2 (ssRNA)
RNA: B7 RNA with C30U, U31C, U33C
B11: Ie_S2_P3E.2_K3.1_C3.2_[+-2CCTCT]_H3.1_A3.1_F3.1_T3.2 (ssRNA)
RNA: B7 RNA with U29C
B12: Ie_S2_P3E.2_K3.1_C3.2_[+-1TCTCT]_H3.1_A3.1_F3.1_T3.2 (ssRNA)
RNA: B7 RNA with C30U, U31C, C32U, U33C
B13: Ie_S2_P3E.2_K3.1_C3.2_H3.1_[+1CCTCT]_A3.1_F3.1_T3.2 (ssRNA)
RNA: B7 RNA with C30U, U31C, U34C
B14: Ie_S2_P3E.2_K3.1_C3.2_H3.1_[+1TTCCT]_A3.1_F3.1_T3.2 (ssRNA)
RNA: B7 RNA with C30U, C32U, U33C, U34C
B15: Ie_S2_P3E.2_K3.1_C3.2_H3.1_[+1TCTCT]_A3.1_F3.1_T3.2 (ssRNA)
RNA: B7 RNA with C30U, U34C
B16: Ie_S2_P3E.2_K3.1_C3.2_[+-1CCTCT]_H3.1_A3.1_F3.1_T3.2 (ssRNA)
RNA: B7 RNA with U31C, C32U, U33C
B17: Ie_S2_P3E.2_K3.1_C3.2_[+-1TTCCT]_H3.1_A3.1_F3.1_T3.2 (ssRNA)
RNA: B7 RNA with C30U, U33C
B18: Ie_S2_P3E.2_K3.1_C3.2_[+-2CCC]_H3.1_A3.1_F3.1_T3.2 (ssRNA)
RNA: UUUGAUUAAUAUGAUAUCGUUCUUUCUCCCCUUGUAUAUAUAUUCUUUCUCGAUAUCAUAUUAAUCUUU
B19: Ie_S2_P3E.2_K3.1_C3.2_H3.1_[+1TCT]_A3.1_F3.1_T3.2 (ssRNA)
RNA: B18 RNA with C29U, C30U, C31U, U32C
B20: Ie_S2_P3E.2_K3.1_C3.2_H3.1_[+1TCC]_A3.1_F3.1_T3.2 (ssRNA)
RNA: B18 RNA with C29U, C30U, C31U, U32C, U33C
B21: Ie_S2_P3E.2_K3.1_C3.2_H3.1_[+1CCT]_A3.1_F3.1_T3.2 (ssRNA)
RNA: B18 RNA with C29U, C30U, U32C
B22: Ie_S2_P3E.2_K3.1_C3.2_H3.1_[+2CTC]_A3.1_F3.1_T3.2 (ssRNA)
RNA: B18 RNA with C29U, C30U, C31G, U32C, G34C
B23: Ie_S2_P3E.2_K3.1_C3.2_[+-1CCC]_H3.1_A3.1_F3.1_T3.2 (ssRNA)
RNA: B18 RNA with C29U, U32C
B24: Ie_S2_P3E.2_K3.1_C3.2_H3.1_[+1CCC]_A3.1_F3.1_T3.2 (ssRNA)
RNA: B18 RNA with C29U, C30U, U32C, U33C
B25: Ie_S2_P3E.2_K3.1_C3.2_[+-2TCT]_H3.1_A3.1_F3.1_T3.2 (ssRNA)
RNA: B18 RNA with C29U, C31U
B26: Ie_S2_P3E.2_K3.1_C3.2_H3.1_[+1TTC]_A3.1_F3.1_T3.2 (ssRNA)
RNA: B18 RNA with C29U, C30U, C31U, U33C
B27: Ie_S2_P3E.2_K3.1_C3.2_[+-2CCT]_H3.1_A3.1_F3.1_T3.2 (ssRNA)
RNA: B18 RNA with C31U
B28: Ie_S2_P3E.2_K3.1_C3.2_[+-2TCC]_H3.1_A3.1_F3.1_T3.2 (ssRNA)
RNA: B18 RNA with C29U
B29: Ie_S2_P3E.2_K3.1_C3.2_H3.1_[+1CTT]_A3.1_F3.1_T3.2 (ssRNA)
RNA: B18 RNA with C29U, C30U
B30: Ie_S2_P3E.2_K3.1_C3.2_H3.1_[+2TCC]_A3.1_F3.1_T3.2 (ssRNA)
RNA: B18 RNA with C29U, C30U, C31G, U33C, G34C
B31: Ie_S2_P3E.2_K3.1_C3.2_H3.1_[+1TTT]_A3.1_F3.1_T3.2 (ssRNA)
RNA: B18 RNA with C29U, C30U, C31U
B32: Ie_S2_P3E.2_K3.1_C3.2_[+-2CTC]_H3.1_A3.1_F3.1_T3.2 (ssRNA)
RNA: B18 RNA with C30U
B33: Ie_S2_P3E.2_K3.1_C3.2_H3.1_[+1C]_A3.1_F3.1_T3.2 (ssRNA)
RNA: UUUGAUUAAUAUGAUAUCGUUCUUUCUCUUCGUAUAUAUAUUCUUUCUCGAUAUCAUAUUAAUCUUU
B34: Ie_S2_P3E.2_K3.1_C3.2_H3.1_[+2T]_A3.1_F3.1_T3.2 (ssRNA)
RNA: B33 RNA with C31G, G32U
B35: Ic_S2_P3E.1_K3.1_C3.1_H3.1_A3.1_[T5A]_F3.1_[T7C]_T3.1 (ssRNA)
RNA: UUUGAUUAAUAUGAUAUCGUUCUUUCUUGUAAACAUUCUUUCUCGAUAUCAUAUUAAUCUUU
B36: Ib_S2_P3E.1_K3.1_C3.1_H3.1_A3.1_[T5C]_F3.1_[T7A]_T3.1 (ssRNA)
RNA: B35 RNA with A32C, C34A
B37: Ic_S2_P3E.1_K3.1_C3.1_H3.1_A3.1_[A6C]_F3.1_[T7C]_T3.1 (ssRNA)
RNA: B35 RNA with A32U, A33C
B38: Ib_S2_P3E.1_K3.1_C3.1_H3.1_A3.1_[A6G]_F3.1_[T7C]_T3.1 (ssRNA)
RNA: B35 RNA with A32U, A33G
B39: Ie_S2_P3E.2_K3.1_C3.2_[+-2CTCT]_H3.1_A3.1_F3.1_T3.2 (ssRNA)
RNA: UUUGAUUAAUAUGAUAUCGUUCUUUCUCCUCUUUGUAUAUAUAUUCUUUCUCGAUAUCAUAUUAAUCUUU
B40: Ie_S2_P3E.2_K3.1_C3.2_[+-2CCCT]_H3.1_A3.1_F3.1_T3.2 (ssRNA)
RNA: B39 RNA with U30C
B41: Ie_S2_P3E.2_K3.1_C3.2_H3.1_[+1CTCT]_A3.1_F3.1_T3.2 (ssRNA)
RNA: B39 RNA with C29U, U33C
B42: Ie_S2_P3E.2_K3.1_C3.2_[+-2TTCC]_H3.1_A3.1_F3.1_T3.2 (ssRNA)
RNA: B39 RNA with C29U, U32C
B43: Ie_S2_P3E.2_K3.1_C3.2_[+-1TTCC]_H3.1_A3.1_F3.1_T3.2 (ssRNA)
RNA: B39 RNA with C29U, C31U, U32C, U33C
B44: Ie_S2_P3E.2_K3.1_C3.2_[+-1CTCT]_H3.1_A3.1_F3.1_T3.2 (ssRNA)
RNA: B39 RNA with C29U, U30C, C31U, U32C
B45: Ie_S2_P3E.2_K3.1_C3.2_[+-1CCTC]_H3.1_A3.1_F3.1_T3.2 (ssRNA)
RNA: B39 RNA with C29U, U30C, U33C
B46: Ie_S2_P3E.2_K3.1_C3.2_H3.1_[+1CCCT]_A3.1_F3.1_T3.2 (ssRNA)
RNA: B39 RNA with C29U, U32C, U33C
B47: Ie_S2_P3E.2_K3.1_C3.2_[+-2CCTC]_H3.1_A3.1_F3.1_T3.2 (ssRNA)
RNA: B39 RNA with U30C, C31U, U32C
B48: Ie_S2_P3E.2_K3.1_C3.2_H3.1_[+1CCTC]_A3.1_F3.1_T3.2 (ssRNA)
RNA: B39 RNA with C29U, U32C, U34C

This data set concerns the target T1, PUF4 RNA-binding domain. The data set can be described thus: Mg; RNA-MaP; 20 mM Na-HEPES pH 7.4, 30 mM KOAc, 0.75 mM MgCl2, 0.1% Tween-20, 5% glycerol, 0.1 mg/mL BSA, 2 mM DTT; 25 C; 0.0125-409.6 nM protein. Particulars: tags: N-His6-TEV cleaved; C-SNAP kept, Cy3B-labelled; label: tethered on chip by stalled RNA polymerase.
Take B1: the affinity, expressed as Kd, was 0.923 nM. This counts as sub-nanomolar.

In turn, B2 registered a Kd of 102 nM. B3 gave a Kd of 39 nM. For B4 the value was 28.3 nM. The molecule B5 came in with a Kd of 14.6 nM. Against the preceding molecule, the Kd is about 1.9-fold lower.

On to B6, for which binding was put at a Kd of 93 nM. To B7 belongs 1.24 nM; to B8, 0.572 nM. For B9 the value was 0.802 nM. To B10 belongs 1.15 nM. Turning to B11, the Kd was found to be 1.06 nM.

The molecule B12 came in with a Kd of 1.04 nM. To B13 belongs 1.11 nM. B14: binding was characterised by a dissociation constant (Kd) of 1.16 nM.

Regarding B15, binding was characterised by a dissociation constant (Kd) of 1.44 nM. To B16 belongs 0.967 nM. To B17 belongs 0.987 nM; to B18, 0.969 nM; to B19, 1.12 nM. To B20 belongs 44.3 nM; to B21, 1.05 nM; to B22, 63.2 nM. B23 gave a Kd of 0.662 nM. To B24 belongs 31.2 nM; to B25, 1.02 nM; to B26, 36.5 nM. Turning to B27, the affinity, expressed as Kd, was 1.07 nM. To B28 belongs 0.933 nM. With B29, the Kd came to 1.32 nM. In turn, B30 displayed a Kd of 9.73 nM.

For B31, the Kd came to 1.33 nM.

For the molecule B32, binding was characterised by a dissociation constant (Kd) of 0.846 nM. B33: the Kd turned out to be 34.5 nM.

Molecule B34 returned a Kd of 8.08 nM. To B35 belongs 327 nM; to B36, 58.4 nM.

Consider B37, for which binding was put at a Kd of 148 nM. To B38 belongs 198 nM; to B39, 1.08 nM. For B40 the value was 0.468 nM; for B41, 0.882 nM. Molecule B42 showed a Kd of 0.819 nM. For B43 the value was 1.28 nM; for B44, 0.703 nM. B45 displayed a Kd of 0.786 nM. The Kd values of the last two molecules are within 1.5-fold of each other. For B46 the value was 0.515 nM; for B47, 0.683 nM; for B48, 52.3 nM.
